Patent US20040137588A1 (published 2004)

Experiments:
[1] = molecular target: chimeric receptor consisting of the extracellular and membrane domain of VEGFR1 fused to the cytoplasmic domain of gp130, on 293A12 cells (UniProt P17948); assay: cell-based or functional assay
[2] = molecular target: T1, VEGF-R2/Fc chimeric protein (R&D systems) (human, UniProt P35968 20-764); assay: SPR (Biacore 2000), VEGF-B167 immobilised, receptor injected
T1 construct: Bought from R&D systems; not shown: human immunoglobulin Fc domain
Description: For control purposes binding of the receptors to VEGF-A₁₆₅ was also monitored. Both VEGF-B₁₆₇ and VEGF-A₁₆₅ were individually immobilised to a sensorchip using NHS/EDC chemistry according to the manufacturer's instructions. Briefly, 35 μl of NHS and EDC was injected onto the sensorchip at a flow rate of 5 μl/min to activate the sensor surface and enable covalent coupling of either VEGF-A₁₆₅ or VEGF-B₁₆₇. […] Post coupling, diaminoethane (50 mM, pH 9.0) was used to block any unbound activated sites on the sensor surface. Concentrated dimeric VEGF-B₁₆₇ (200 μg/ml) was diluted (1:10) in 20 mM sodium acetate and immobilized onto a separate channel on the sensorchip. Post coupling, diaminoethane (50 mM, pH 9.0) was used to block any unbound activated sites on the sensor surface.
At the end of each run, the surface of the sensorchip was regenerated using 2 cycles of phosphoric acid (0.1 M, 30 μl) at a flow of 50 μl/min. […] Both were diluted into 0.1% w/v BSA in PBS as a stock solution (50 μg/ml, storage −20° C.).

[3] = molecular target: T2, VEGF-R1/Fc chimeric protein (R&D systems) (human, UniProt P17948 27-687, limits assumed); assay: competition ELISA on captured VEGF-R1/Fc (100 ng/ml); competitor VEGF-A165 at 10 ng/ml, detected with biotinylated anti-VEGF-A165
T2 construct: Bought from R&D systems; also called VEGF-R1/Flt-1; soluble VEGFR1-Ig chimeric protein; not shown: human immunoglobulin Fc domain
Description: 3. […] Plates were incubated for 90 min at room temperature.
5. VEGF-A₁₆₅ was added (indicated concentration in Buffer 20) and incubated at room temp for 1 hr. In competition experiments, VEGF-B₁₆₇ was added 30 min prior to the addition of VEGF-A₁₆₅. A range of VEGF-B₁₆₇ concentrations were used to compete with VEGF-A₁₆₅ at a final concentration of 10 ng/ml.
7. Biotinylated anti-VEGF-A₁₆₅ (10 ng/ml in Buffer 20, 100 μl) was added and incubated for 1 hr.

Sequence of chimeric receptor consisting of the extracellular and membrane domain of VEGFR1 fused to the cytoplasmic domain of gp130, on 293A12 cells (P17948 other isoform, or with tags, fused parts or gaps mutant limits assumed): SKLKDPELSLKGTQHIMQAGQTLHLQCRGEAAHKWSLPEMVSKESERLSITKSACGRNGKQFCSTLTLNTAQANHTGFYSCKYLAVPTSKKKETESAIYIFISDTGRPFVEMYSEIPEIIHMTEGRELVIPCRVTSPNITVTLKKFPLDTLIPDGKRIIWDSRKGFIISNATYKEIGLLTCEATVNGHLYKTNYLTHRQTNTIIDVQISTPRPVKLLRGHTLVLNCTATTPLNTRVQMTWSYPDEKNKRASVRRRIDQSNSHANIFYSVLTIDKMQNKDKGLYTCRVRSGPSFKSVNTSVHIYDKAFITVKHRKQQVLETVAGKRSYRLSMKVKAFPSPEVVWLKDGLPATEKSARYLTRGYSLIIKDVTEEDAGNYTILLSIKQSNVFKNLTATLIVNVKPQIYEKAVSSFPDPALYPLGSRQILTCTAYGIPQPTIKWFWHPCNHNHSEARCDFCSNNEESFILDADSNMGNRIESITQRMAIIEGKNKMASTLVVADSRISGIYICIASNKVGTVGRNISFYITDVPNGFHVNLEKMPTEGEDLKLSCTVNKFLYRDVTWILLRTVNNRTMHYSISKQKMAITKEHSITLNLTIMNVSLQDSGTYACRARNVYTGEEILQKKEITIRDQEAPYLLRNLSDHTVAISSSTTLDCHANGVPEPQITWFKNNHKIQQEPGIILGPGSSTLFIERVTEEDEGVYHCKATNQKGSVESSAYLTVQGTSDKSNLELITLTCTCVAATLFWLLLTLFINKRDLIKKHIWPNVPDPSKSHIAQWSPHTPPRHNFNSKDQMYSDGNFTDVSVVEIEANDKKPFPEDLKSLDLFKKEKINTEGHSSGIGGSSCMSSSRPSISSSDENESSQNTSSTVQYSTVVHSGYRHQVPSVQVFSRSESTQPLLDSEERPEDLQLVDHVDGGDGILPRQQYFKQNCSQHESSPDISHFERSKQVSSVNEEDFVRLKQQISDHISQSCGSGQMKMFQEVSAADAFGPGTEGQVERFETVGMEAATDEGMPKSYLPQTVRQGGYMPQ
T2 sequence (P17948 27-687 limits assumed, change not shown): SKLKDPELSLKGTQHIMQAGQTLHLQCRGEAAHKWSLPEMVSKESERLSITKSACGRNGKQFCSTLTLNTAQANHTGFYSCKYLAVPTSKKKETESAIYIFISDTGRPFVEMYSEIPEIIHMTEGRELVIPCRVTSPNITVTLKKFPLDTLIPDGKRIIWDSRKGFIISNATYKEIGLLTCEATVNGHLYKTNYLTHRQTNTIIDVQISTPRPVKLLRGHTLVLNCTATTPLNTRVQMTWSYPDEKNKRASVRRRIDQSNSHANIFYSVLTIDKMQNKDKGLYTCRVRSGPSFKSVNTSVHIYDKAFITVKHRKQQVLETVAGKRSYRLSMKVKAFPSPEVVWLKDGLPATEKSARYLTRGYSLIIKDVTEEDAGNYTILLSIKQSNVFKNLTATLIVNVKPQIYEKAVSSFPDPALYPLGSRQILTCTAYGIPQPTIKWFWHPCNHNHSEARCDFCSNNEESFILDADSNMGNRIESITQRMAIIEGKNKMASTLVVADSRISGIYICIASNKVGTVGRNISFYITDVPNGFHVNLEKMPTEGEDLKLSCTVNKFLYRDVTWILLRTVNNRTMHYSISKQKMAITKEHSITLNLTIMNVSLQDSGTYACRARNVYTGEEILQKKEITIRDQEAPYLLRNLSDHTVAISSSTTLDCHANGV
T1 sequence (P35968 20-764 limits assumed, change not shown): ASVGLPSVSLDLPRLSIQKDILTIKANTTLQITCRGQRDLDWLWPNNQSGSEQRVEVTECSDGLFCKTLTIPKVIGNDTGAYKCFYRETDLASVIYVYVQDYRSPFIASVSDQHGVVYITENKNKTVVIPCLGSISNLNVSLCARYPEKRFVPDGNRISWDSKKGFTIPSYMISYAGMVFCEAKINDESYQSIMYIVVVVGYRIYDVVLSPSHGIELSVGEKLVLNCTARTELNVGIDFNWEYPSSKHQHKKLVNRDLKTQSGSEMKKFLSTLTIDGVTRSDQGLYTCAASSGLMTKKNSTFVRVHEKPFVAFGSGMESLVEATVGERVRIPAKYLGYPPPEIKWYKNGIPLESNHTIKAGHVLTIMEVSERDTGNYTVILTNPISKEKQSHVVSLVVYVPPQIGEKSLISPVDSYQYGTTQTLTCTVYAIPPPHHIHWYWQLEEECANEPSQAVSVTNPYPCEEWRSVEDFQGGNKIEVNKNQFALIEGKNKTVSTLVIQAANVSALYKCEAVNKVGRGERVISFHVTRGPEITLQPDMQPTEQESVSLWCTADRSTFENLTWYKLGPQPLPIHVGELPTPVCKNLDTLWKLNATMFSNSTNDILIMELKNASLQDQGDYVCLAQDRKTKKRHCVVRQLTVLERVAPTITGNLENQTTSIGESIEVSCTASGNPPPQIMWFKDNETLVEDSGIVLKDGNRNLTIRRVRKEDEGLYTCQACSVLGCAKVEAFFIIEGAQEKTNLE

| ED50 of luciferase production in 293A12 cells with the chimeric receptor [1] [µg/mL] | binding result [2] | IC50 [3] [µg/mL] | Molecule |
| --- | --- | --- | --- |
| 0.01 to 0.05 | – | – | VEGF-A (commercially available recombinant protein, Example 28) (from UniProt P15692 27-191) (ligand) |
| – | no binding | ~0.02 | purified refolded dimeric VEGF-B167 (ligand, human, UniProt P49765-2 22-188, looked up, not shown: small tags and cut ends, mature) PVSQPDAPGHQRKVVSWIDVYTRATCQPREVVVPLTVELMGTVAKQLVPSCVTVQRCGGCCPDDGLECVPTGQHQVRMQILMIRYPSSQLGEMSLEEHSQCECRPKKKDSAVKPDSPRPLCPRCTQHHQRPDPRTCRCRCRRRSFLRCQGRGLELNPDTCRCRKLRR |
